Measurements: IntAct's records for PubMed 25068414

B1: Protein ECT2 (Homo sapiens), Q9H8V3 (parent)
chain: MAENSVLTSTTGRTSLADSSIFDSKVTEISKENLLIGSTSYVEEEMPQIETRVILVQEAGKQEELIKALKTIKIMEVPVIKIKESCPGKSDEKLIKSVINMDIKVGFVKMESVEEFEGLDSPEFENVFVVTDFQDSVFNDLYKADCRVIGPPVVLNCSQKGEPLPFSCRPLYCTSMMNLVLCFTGFRKKEELVRLVTLVHHMGGVIRKDFNSKVTHLVANCTQGEKFRVAVSLGTPIMKPEWIYKAWERRNEQDFYAAVDDFRNEFKVPPFQDCILSFLGFSDEEKTNMEEMTEMQGGKYLPLGDERCTHLVVEENIVKDLPFEPSKKLYVVKQEWFWGSIQMDARAGETMYLYEKANTPELKKSVSMLSLNTPNSNRKRRRLKETLAQLSRETDVSPFPPRKRPSAEHSLSIGSLLDISNTPESSINYGDTPKSCTKSSKSSTPVPSKQSARWQVAKELYQTESNYVNILATIIQLFQVPLEEEGQRGGPILAPEEIKTIFGSIPDIFDVHTKIKDDLEDLIVNWDESKSIGDIFLKYSKDLVKTYPPFVNFFEMSKETIIKCEKQKPRFHAFLKINQAKPECGRQSLVELLIRPVQRLPSVALLLNDLKKHTADENPDKSTLEKAIGSLKEVMTHINEDKRKTEAQKQIFDVVYEVDGCPANLLSSHRSLVQRVETISLGEHPCDRGEQVTLFLFNDCLEIARKRHKVIGTFRSPHGQTRPPASLKHIHLMPLSQIKKVLDIRETEDCHNAFALLVRPPTEQANVLLSFQMTSDELPKENWLKMLCRHVANTICKADAENLIYTADPESFEVNTKDMDSTLSRASRAIKKTSKKVTRAFSFSKTPKRALRRALMTSHGSVEGRSPSSNDKHVMSRLSSTSSLAGIPSPSLVSLPSFFERRSHTLSRSTTHLI
partner: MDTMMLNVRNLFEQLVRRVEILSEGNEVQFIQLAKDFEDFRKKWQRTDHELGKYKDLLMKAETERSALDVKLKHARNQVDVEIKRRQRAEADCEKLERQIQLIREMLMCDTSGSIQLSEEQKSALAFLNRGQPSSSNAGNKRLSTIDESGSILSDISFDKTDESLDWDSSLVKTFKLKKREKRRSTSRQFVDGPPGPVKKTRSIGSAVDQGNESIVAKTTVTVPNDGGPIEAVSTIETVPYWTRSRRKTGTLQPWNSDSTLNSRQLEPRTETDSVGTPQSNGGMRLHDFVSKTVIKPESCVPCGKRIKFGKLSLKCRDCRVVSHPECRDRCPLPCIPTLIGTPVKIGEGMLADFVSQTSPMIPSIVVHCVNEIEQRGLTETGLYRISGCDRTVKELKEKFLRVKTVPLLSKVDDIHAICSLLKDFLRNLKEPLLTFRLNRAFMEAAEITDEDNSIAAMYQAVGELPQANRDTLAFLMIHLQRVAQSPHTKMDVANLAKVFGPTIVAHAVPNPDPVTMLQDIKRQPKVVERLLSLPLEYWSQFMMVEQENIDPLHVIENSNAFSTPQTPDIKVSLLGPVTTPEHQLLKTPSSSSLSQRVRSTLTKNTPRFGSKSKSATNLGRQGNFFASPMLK
B2: Rac GTPase-activating protein 1 (Homo sapiens), Q9H0H5 (parent)
chain: B1 partner
partner: B1 chain

Variants of: B1
Details: with rgap1_human RACGAP1, Q9H0H5

Variant	effect of a mutation on the interaction
P163E	decreasing interaction

Variants of: B1
Details: with rgap1_human RACGAP1, Q9H0H5
Remark: another data set of the same source

Variant	effect of a mutation on the interaction
V153A;L195M	disrupting interaction

Variants of: B1
Details: with rgap1_human RACGAP1, Q9H0H5
Remark: another data set of the same source

Variant	effect of a mutation on the interaction
L195M	disrupting interaction

Variants of: B1
Details: with rgap1_human RACGAP1, Q9H0H5
Remark: another data set of the same source

Variant	effect of a mutation on the interaction
V153A	decreasing interaction

Variants of: B2
Details: with ect2_human ECT2, Q9H8V3

Variant	effect of a mutation on the interaction
W167A	decreasing interaction
